B1: 12-mer TA-flanked, X=M (dsDNA)
DNA 1: ATACACGTGTAT
DNA 2: ATACACGTGTAT
modifications: 5mC at C4 and C6 of both strands
B2: 12-mer TA-flanked, X=H (dsDNA)
DNA 1: ATACACGTGTAT
DNA 2: ATACACGTGTAT
modifications: 5hmC at C4 and C6 of both strands

Target: TCF4 bHLH domain (Homo sapiens, UniProt P15884 565-624)
Experiment: ITC

Chain of TCF4 bHLH domain (P15884 565-624): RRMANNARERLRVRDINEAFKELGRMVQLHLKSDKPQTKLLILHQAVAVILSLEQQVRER

Binder | binding result
B1 | no binding
B2 | no binding
